In data set [1] the test system is HeLa Kyoto. Put plainly: solubility in G1/S (NP-40 vs SDS abundance) (log2 ratio); higher = more soluble. Particulars: cell cycle stage: G1/S.
Data set [2] relates to HeLa Kyoto. The experiment in a line: melting temperature (median over replicates), in situ; higher = more thermally stable.
For data set [3], the system named is HeLa Kyoto. Put plainly: solubility change mitosis vs G1/S (difference of NP-40 vs SDS log2 ratios) (log2 ratio difference); higher = more soluble in mitosis.
Data set [4] has as its system HeLa Kyoto. The experiment in a line: thermal stability score vs G1/S (z-score of summed log2 fold changes over temperatures); higher = more thermally stable than in G1/S.
The mark [5] stands for this setting: cell cycle stage: early G1 (4.5 h after nocodazole release).

The results in this text go back to the supplement of paper PMC5998384.
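For melting temperature (median over replicates), in situ in this document: HeLa Kyoto cells synchronized by double thymidine or nocodazole block, proteins quantified by TMT10plex mass spectrometry, three independent biological replicates.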
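For solubility change mitosis vs G1/S (difference of NP-40 vs SDS log2 ratios) in this document: synchronized HeLa Kyoto cells (double thymidine block for G1/S, nocodazole release for mitosis), protein amounts in NP-40 versus SDS lysates quantified by mass spectrometry, three biological replicates.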
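For solubility in G1/S (NP-40 vs SDS abundance) in this document: HeLa Kyoto cells arrested at G1/S by double thymidine block, proteins quantified by TMT10plex mass spectrometry in mild NP-40 versus SDS extracts, three biological replicates.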
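For thermal stability score vs G1/S (z-score of summed log2 fold changes over temperatures) in this document: synchronized HeLa Kyoto cells, proteins quantified by TMT10plex mass spectrometry, three biological replicates, mitosis taken 0.5 h after nocodazole release, G1/S directly after double thymidine block.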

Turning to “MSQVLFHQLVPLQVKCKDCEERRVSIRMSIELQSVSNPVHRKDLVIRLTDDTDPFFLYNLVISEEDFQSLKFQQGLLVDFLAFPQKFIDLLQQCTQEHAKEIPRFLLQLVSPAAILDNSPAFLNVVETNPFKHLTHLSLKLLPGNDVEIKKFLAGCLKCSKEEKLSLMQSLDDATKQLDFTRKTLAEKKQELDKLRNEWASHTAALTNKHSQELTNEKEKALQAQVQYQQQHEQQKKDLEILHQQNIHQLQNRLSELEAANKDLTERKYKGDSTIRELKAKLSGVEEELQRTKQEVLSLRRENSTLDVECHEKEKHVNQLQTKVAVLEQEIKDKDQLVLRTKEAFDTIQEQKVVLEENGEKNQVQLGKLEATIKSLSAELLKANEIIKKLQGDLKTLMGKLKLKNTVTIQQEKLLAEKEEKLQKEQKELQDVGQSLRIKEQEVCKLQEQLEATVKKLEESKQLLKNNEKLITWLNKELNENQLVRKQDVLGPSTTPPAHSSSNTIRSGISPNLNVVDGRLTYPTCGIGYPVSSAFAFQNTFPHSISAKNTSHPGSGTKVQFNLQFTKPNASLGDVQSGATISMPCSTDKENGENVGLESKYLKKREDSIPLRGLSQNLFSNSDHQRDGTLGALHTSSKPTALPSASSAYFPGQLPNS [SASS6]”, the “solubility in G1/S (log2)” value in data set [1] stood at 0.537. The values for the melting temperature in data set [2] (cell cycle stage: G1/S) and in data set [2] (cell cycle stage: mitosis) were 48.2 °C and 49.3 °C, respectively. In data set [3], the “solubility change mitosis (log2)” value is -0.0259. The thermal stability score in data set [4] (setting [5]) stood at 0.985; in data set [4] (cell cycle stage: mitosis), 0.832.
As to “MLPSLQESMDGDEKELESSEEGGSAEERRLEPPSSSHYCLYSYRGSRLAQQRGDSEDGSPSGTNAETPSGDDFSLSLADTNLPSEVEPELRSFIAKRLSRGAVFEGLGNVASVELKIPGYRVGCYYCLFQNEKLLPETVTIDSERNPSEYVVCFLGGSEKGLELFRLELDKYIQGLKNNMNCEARGLESHIKSYLSSWFEDVVCPIQRVVLLFQEKLTFLLHAALSYTPVEVKESDEKTKRDINRFLSVASLQGLIHEGTMTSLCMAMTEEQHKSVVIDCSSSQPQFCNAGSNRFCEDWMQAFLNGAKGGNPFLFRQVLENFKLKAIQDTNNLKRFIRQAEMNHYALFKCYMFLKNCGSGDILLKIVKVEHEEMPEAKNVIAVLEEFMKEALDQSF [C17ORF75]”, the “solubility in G1/S (log2)” value in data set [1] came to 0.283. The melting temperature in data set [2] (cell cycle stage: G1/S) turned out to be 51.5 °C; in data set [2] (cell cycle stage: mitosis) it was 51.7 °C. In data set [3], the “solubility change mitosis (log2)” value is -0.159. Also, the thermal stability score in data set [4] (setting [5]) was -0.255; in data set [4] (cell cycle stage: mitosis) it was -0.352.
For the substance “MAVVPLLLLGGLWSAVGASSLGVVTCGSVVKLLNTRHNVRLHSHDVRYGSGSGQQSVTGVTSVDDSNSYWRIRGKSATVCERGTPIKCGQPIRLTHVNTGRNLHSHHFTSPLSGNQEVSAFGEEGEGDYLDDWTVLCNGPYWVRDGEVRFKHSSTEVLLSVTGEQYGRPISGQKEVHGMAQPSQNNYWKAMEGIFMKPSELLKAEAHHAEL [SDF2]”, the “solubility in G1/S (log2)” value in data set [1] turned out to be 0.097. Also, the melting temperature in data set [2] (cell cycle stage: G1/S) turned out to be 54.3 °C; in data set [2] (cell cycle stage: mitosis) it was 54.1 °C. Also, in data set [3], the “solubility change mitosis (log2)” value is -0.129. For the same substance, the thermal stability score in data set [4] (setting [5]) came out at 4.15; in data set [4] (cell cycle stage: mitosis) it was 3.09.
On to ATP7A, for which the “solubility in G1/S (log2)” value in data set [1] stood at 0.00927. Moreover, the melting temperature was 51.7 °C in data set [2] (cell cycle stage: G1/S) and 51.1 °C in data set [2] (cell cycle stage: mitosis). In addition, the “solubility change mitosis (log2)” value in data set [3] was -0.147. In addition, the thermal stability score in data set [4] (setting [5]) is -0.475; in data set [4] (cell cycle stage: mitosis), -0.996.
For ILF2, the “solubility in G1/S (log2)” value in data set [1] was -0.141. The melting temperature in data set [2] (cell cycle stage: G1/S) is 54.6 °C; in data set [2] (cell cycle stage: mitosis) it was 53.3 °C. In addition, the “solubility change mitosis (log2)” value in data set [3] is 0.0511. Also, the thermal stability score is -1.61 in data set [4] (setting [5]) and -1.98 in data set [4] (cell cycle stage: mitosis).
Take NFIB: the “solubility in G1/S (log2)” value in data set [1] came to 0.238. Besides, the melting temperature in data set [2] (cell cycle stage: G1/S) was 54.2 °C; in data set [2] (cell cycle stage: mitosis) it was 53.9 °C. The “solubility change mitosis (log2)” value in data set [3] was -0.032. The thermal stability score in data set [4] (setting [5]) came out at 1.24; in data set [4] (cell cycle stage: mitosis), 1.07.
